Data set [1] addresses T1, Guanylate kinase (GUK), mouse, isoform 1 (mouse, UniProt Q64520-2 1-219).
T1 construct: it gives an expected theoretical mass of 22 kDa, which fits about 198 aa better than the printed 219 aa; also called recombinant GUK; GUK1
T1 sequence (looked up): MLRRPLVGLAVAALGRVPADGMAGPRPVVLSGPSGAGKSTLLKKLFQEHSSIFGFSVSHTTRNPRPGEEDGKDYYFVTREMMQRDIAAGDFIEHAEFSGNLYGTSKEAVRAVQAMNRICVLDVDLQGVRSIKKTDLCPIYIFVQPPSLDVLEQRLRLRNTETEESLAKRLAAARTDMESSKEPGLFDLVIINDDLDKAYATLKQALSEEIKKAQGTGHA
The data set can be described thus: back-scattering interferometry (BSI); free solution, label-free, nothing immobilised; RD3 (or TEV protease) 0 to 300 nM titrated into lysate supernatant of stable GUK HEK-293T cells (0.1 ug/ul) in 20 mM phosphate buffer pH 7.0, 150 mM NaCl, 0.005% Tween 20; overnight at 4°C; titration of lysate without GUK subtracted; apparent KD, Hill fit. The following applies: one partner purified.

For data set [2], the target named is T2, Guanylate kinase (GUK) from porcine brain (porcine, UniProt P31006 1-198).
T2 sequence (looked up): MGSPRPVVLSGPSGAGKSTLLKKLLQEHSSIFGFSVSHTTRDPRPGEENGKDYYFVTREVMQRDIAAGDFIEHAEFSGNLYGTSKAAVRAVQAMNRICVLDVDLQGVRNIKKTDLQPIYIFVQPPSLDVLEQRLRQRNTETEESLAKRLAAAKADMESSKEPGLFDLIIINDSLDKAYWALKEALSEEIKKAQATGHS
The data set can be described thus: cell-based or functional assay.

The target of data set [3] is T3, Guanylate kinase (GUK) in a soluble extract from bovine rod outer segments (bovine (endogenous in rod outer …, UniProt P46195 1-198)).
T3 sequence (looked up): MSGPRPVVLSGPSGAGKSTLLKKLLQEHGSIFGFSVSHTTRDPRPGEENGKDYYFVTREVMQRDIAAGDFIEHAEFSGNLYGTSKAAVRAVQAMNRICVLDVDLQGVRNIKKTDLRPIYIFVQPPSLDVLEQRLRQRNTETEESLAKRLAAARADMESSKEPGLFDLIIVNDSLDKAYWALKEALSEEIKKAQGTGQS
Put plainly: cell-based or functional assay.

Data set [4] concerns the molecule itself. Put plainly: cross-linking; purified RD3 (0.1 ug) with 0.5 mM BS3 for 2 min at room temperature, stopped with Tris-HCl pH 7.5; SDS-PAGE and anti-RD3 immunoblot; monomer to dimer. On the technique in general: Immunoblotting shows a protein as a band on a membrane.

B1: Retinal degeneration protein 3 (RD3), human, His6-tagged (natural protein, UniProt Q7Z3Z2 1-195, looked up)
chain: MSLISWLRWNEAPSRLSTRSPAEMVLETLMMELTGQMREAERQQRERSNAVRKVCTGVDYSWLASTPRSTYDLSPIERLQLEDVCVKIHPSYCGPAILRFRQLLAEQEPEVQEVSQLFRSVLQEVLERMKQEEEAHKLTRQWSLRPRGSLATFKTRARISPFASDIRTISEDVERDTPPPLRSWSMPEFRAPKAD
notes: The forward primer puts a few extra vector or primer residues before the first Met; also called RD3 - His6; His-tagged RD3
The term stoichiometry N denotes the number of molecules, sites or subunits per partner or assembly. B1: the Kd in data set [1] is roughly 100 nM. For the same molecule, the “guanylate kinase activity (5'-GMP to GDP, coupled spectrophotometric assay at 340 nm), RD3 0 to 3.5 uM” value is roughly 10 fold in data set [2] and 2 fold in data set [3]. Further, the “stoichiometry N” value in data set [4] worked out at 2.

The values above are taken from PMC5826319, “Control of the Nucleotide Cycle in Photoreceptor Cell Extracts by Retinal Degeneration Protein 3” (Frontiers in Molecular Neuroscience, 2018).
